From patent US20060257955

Target: T1, labeled peptide ecot2 (T2), Dabcyl-KVSRRRRRGGD-Edans (not fully specified)
T1 chain: KVSRRRRRGGD

B1: E. coli outer membrane protease OmpT (protein)
chain: STETLSFTPDNINADISLGTLSGKTKERVYLAEEGGRKVSQLDWKFNNAAIIKGAINWDLMPQISIGAAGWTTLGSRGGNMVDQDWMDSSNPGTWTDESRHPDTQLNYANEFDLNIKGWLLNEPNYRLGLMAGYQESRYSFTARGGSYIYSSEEGFRDDIGSFPNGERAIGYKQRFKMPYIGLTGSYRYEDFELGGTFKYSGWVESSDNDEHYDPGKRITYRSKVKDQNYYSVAVNAGYYVTPNAKVYVEGAWNRVTNKKGNTSLYDHNNNTSDYSKNGAGIENYNFITTAGLKYTF
- protease assay (cleavage of substrate T2, relative fluorescence), buffer with 5% fetal bovine serum: detection of the presence of E. coli in the E. coli sample occurred in the presence of FBS
- protease assay (cleavage of substrate T2, relative fluorescence), simulated wound fluid buffer with 5% bovine serum albumin: the protease reactivity of the E. coli sample was not affected by the simulated wound fluid buffer
